# Results from PMC7165476 (Proceedings of the National Academy of Sciences of the …, 2020).
# Like-named read-outs stand apart in the source and are kept apart here.
# T1: Transportin-3 (TNPO3), recombinant full length (human, UniProt Q9Y5L0 1-923)
# T1 sequence (looked up): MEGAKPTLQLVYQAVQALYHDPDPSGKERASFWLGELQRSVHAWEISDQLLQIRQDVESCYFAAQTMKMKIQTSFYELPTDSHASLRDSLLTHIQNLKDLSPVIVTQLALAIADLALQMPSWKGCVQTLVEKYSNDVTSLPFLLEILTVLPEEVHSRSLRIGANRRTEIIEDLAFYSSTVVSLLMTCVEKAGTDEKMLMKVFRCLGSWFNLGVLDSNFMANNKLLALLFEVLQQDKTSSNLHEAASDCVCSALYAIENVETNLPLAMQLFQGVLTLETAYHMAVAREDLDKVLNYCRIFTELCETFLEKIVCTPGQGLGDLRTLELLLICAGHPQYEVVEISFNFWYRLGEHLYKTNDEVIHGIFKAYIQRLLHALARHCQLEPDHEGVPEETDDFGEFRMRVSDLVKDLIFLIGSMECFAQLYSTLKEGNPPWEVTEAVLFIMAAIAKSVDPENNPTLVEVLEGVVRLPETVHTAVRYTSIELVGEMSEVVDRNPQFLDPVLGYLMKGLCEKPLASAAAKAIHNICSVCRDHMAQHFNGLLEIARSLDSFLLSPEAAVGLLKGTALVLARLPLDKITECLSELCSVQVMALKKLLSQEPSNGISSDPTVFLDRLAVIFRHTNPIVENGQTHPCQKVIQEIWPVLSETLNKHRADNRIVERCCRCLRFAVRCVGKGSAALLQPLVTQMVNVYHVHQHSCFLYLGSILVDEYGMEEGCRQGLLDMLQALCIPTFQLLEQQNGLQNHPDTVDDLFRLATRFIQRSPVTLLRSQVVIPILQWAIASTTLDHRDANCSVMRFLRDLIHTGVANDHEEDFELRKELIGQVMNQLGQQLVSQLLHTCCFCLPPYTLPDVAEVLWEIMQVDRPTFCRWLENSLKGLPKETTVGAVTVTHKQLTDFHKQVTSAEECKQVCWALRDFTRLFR
# T2: CIRBP RGG (CIRBPRGG) (Homo sapiens, UniProt Q14011 68-137)
# T2 sequence: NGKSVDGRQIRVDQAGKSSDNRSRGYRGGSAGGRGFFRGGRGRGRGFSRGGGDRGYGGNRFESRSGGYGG
# Legend:
# [1] = molecular target: TNPO1 lacking the disordered acidic loop (TNPO1^Δloop) (human) (UniProt Q92973); test: ITC
# [2] = molecular target: Transportin-1 (TNPO1), recombinant full length (human) (UniProt Q92973); test: ITC
# [3] = molecular target: Transportin-3 (TNPO3), recombinant full length (human) (UniProt Q9Y5L0); test: ITC
# [4] = molecular target: Transportin-3 (TNPO3), recombinant full length (human) (UniProt Q9Y5L0); test: ITC; remark: listed apart in the source
# [5] = molecular target: TNPO1 acidic loop (TNPO1^loop) (human); test: NMR titration
# [6] = molecular target: T1, Transportin-3 (TNPO3), recombinant full …; test: ITC
# CIRBP RGG (CIRBPRGG) = molecular target: T2, CIRBP RGG (CIRBPRGG); test: NMR
# Transportin-1 (TNPO1), recombinant full length (human), sequence (Q92973 whole entry): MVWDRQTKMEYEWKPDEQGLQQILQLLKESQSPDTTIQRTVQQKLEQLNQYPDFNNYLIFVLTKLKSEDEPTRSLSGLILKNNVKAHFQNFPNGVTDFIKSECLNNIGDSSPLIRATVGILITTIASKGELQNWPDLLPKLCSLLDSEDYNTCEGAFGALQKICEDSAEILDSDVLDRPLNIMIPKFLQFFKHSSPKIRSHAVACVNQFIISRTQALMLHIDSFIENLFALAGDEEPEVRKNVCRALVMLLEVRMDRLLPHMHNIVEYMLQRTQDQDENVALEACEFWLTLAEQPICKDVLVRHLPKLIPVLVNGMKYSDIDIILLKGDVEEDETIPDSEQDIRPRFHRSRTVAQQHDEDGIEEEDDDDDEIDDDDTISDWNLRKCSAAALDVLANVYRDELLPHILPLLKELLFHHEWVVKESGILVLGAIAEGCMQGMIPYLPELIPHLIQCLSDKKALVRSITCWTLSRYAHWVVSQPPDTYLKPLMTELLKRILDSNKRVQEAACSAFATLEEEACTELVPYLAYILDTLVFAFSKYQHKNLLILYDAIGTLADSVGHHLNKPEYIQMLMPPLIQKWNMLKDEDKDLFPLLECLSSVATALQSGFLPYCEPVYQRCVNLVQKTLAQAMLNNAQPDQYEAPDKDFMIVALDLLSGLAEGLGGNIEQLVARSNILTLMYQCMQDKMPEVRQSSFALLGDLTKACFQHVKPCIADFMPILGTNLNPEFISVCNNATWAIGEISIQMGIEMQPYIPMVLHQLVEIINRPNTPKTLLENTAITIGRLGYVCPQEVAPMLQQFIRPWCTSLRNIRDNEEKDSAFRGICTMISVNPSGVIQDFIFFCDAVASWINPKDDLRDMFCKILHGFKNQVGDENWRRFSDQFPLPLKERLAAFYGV
# TNPO1 lacking the disordered acidic loop (TNPO1^Δloop) (human), sequence (Q92973 whole entry, stated change not applied): as the sequence (Q92973 whole entry) above
# PY-NLS of FUS (FUS^PY-NLS) (domain or fragment), sequence (P35637 whole entry, the tested form may be a part): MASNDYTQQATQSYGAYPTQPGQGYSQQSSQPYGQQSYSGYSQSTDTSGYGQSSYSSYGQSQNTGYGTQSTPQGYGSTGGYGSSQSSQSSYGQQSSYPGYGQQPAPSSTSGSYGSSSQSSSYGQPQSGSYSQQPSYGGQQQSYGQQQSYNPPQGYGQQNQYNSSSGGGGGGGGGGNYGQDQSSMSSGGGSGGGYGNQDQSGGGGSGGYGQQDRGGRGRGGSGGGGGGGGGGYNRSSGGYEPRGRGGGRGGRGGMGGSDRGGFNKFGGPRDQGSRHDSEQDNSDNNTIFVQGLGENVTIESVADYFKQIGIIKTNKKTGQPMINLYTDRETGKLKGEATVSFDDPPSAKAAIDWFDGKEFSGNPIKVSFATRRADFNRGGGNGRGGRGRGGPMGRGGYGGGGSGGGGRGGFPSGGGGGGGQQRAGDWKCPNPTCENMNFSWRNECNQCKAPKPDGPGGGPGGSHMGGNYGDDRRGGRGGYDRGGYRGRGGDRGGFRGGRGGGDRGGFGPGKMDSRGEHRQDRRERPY
# TNPO1 acidic loop (TNPO1^loop) (human), sequence (Q92973 whole entry): as the sequence (Q92973 whole entry) above
Molecule,Kd [1] [nM],dH [1] [kcal⋅mol^−1],Kd [2] [nM],dH [2] [kcal⋅mol^−1],Kd [3] [nM],dH [3] [kcal⋅mol^−1],further results
CIRBP RG/RGG-rich region (CIRBP^RGG) (domain or fragment),364,-22.3,75,-11.3,584,-27,Kd [4]: 589 nM; Kd [5]: 57 µM
PY-NLS of FUS (FUS^PY-NLS) (domain or fragment),62,-20.6,48,-21.9,,,
"Cold-inducible RNA-binding protein (CIRBP), full length, untagged (natural protein, human, UniProt Q14011 1-172, looked up) MASDEGKLFVGGLSFDTNEQSLEQVFSKYGQISEVVVVKDRETQRSRGFGFVTFENIDDAKDAMMAMNGKSVDGRQIRVDQAGKSSDNRSRGYRGGSAGGRGFFRGGRGRGRGFSRGGGDRGYGGNRFESRSGGYGGSRDYYSSRSQSGGYSDRSSGGSYRDSYDSYATHNE",,,,,,,Kd [6]: 289 nM; dH [6]: -58.6 kcal⋅mol^−1
UGUGUGUGUGUGUGUGUGUGUGUG (ssRNA) [(UG)12 RNA],,,,,,,binding result (CIRBP RGG (CIRBPRGG)): binds

# More lines, main results first:
Kd [1] [nM],dH [1] [kcal⋅mol^−1],Kd [2] [nM],dH [2] [kcal⋅mol^−1],Kd [3] [nM],dH [3] [kcal⋅mol^−1],Molecule,further results
8080,-19,7800,-10,114,-34.9,CIRBP C-terminal RSY-rich region (CIRBP^RSY) (domain or fragment),
,,741,-21,,,"Cold-inducible RNA-binding protein (CIRBP), full length, untagged (from UniProt Q14011 1-172) (natural protein)",
,,,,3300,-23,PRMT1-methylated CIRBP RG/RGG region (meCIRBP^RGG) (domain or fragment),
